Measured values published in US12617827B2, “Self-assembling peptide” (NATIONAL UNIVERSITY CORPORATION TOKYO MEDICAL AND DENTAL …, priority 2020, dated 2026).
Read-outs that look alike come from different tables or passages of the source.

Key:
[1] = biological target: RADA16 peptide, as RADA16 peptide gel; assay: incorporation into the peptide gel; unincorporated fraction in PBS washes measured by sandwich ELISA
[2] = cited from earlier work
[3] = Rheological property of the peptide gel (rheometer, storage elastic modulus G′ and loss elastic modulus G″); assay type: physicochemical; conditions: peptide concentration 1.0% by weight
Experimental: Among gels having a concentration of 1.0% by weight prepared in Example 1, gels formed by six types of peptide samples as examples: […] peptide (SEQ ID NO: 1), […] peptide (SEQ ID NO: 2), […] peptide (SEQ ID NO: 4), […] peptide (SEQ ID NO: 5), […] peptide (SEQ ID NO: 6), and […] peptide (SEQ ID NO: 8) were subjected to measurement of the rheological property thereof.
The rheological property was measured for 250 μL of a sample with a rheometer (Malvern Panalytical, Kinexus lab+). Specifically, the sample was sandwiched at a gap of 0.2 mm between plates, and subjected to measurement at 20° C.
The storage elastic modulus G′ and the loss elastic modulus G″ of a gel formed by each peptide are obtained by measurement of the rheological property. The storage elastic modulus G′ represents a component stored in an object, of the energy generated by an external force to the object and a strain, and the loss elastic modulus G″ represents a component externally diffused. In a case where a measurement specimen is a gel, the storage elastic modulus G′ generally exceeds the loss elastic modulus G″.

[4] = Fluidity test (gel formation ability) of peptide samples; assay type: physicochemical; conditions: 1.0% by weight in D-MEM (44 mM NaHCO3, pH 7.4), 37°C, CO2 5%, 48 hours
Experimental: A peptide powder after freeze-drying at 2.5 mg and 250 μL of D-MEM (containing 1×penicillin, 4.0 mM HEPES, 44 mM NaHCO3; pH 7.4) were added to a 1-mL microtube (glass container having an inner diameter of 5 mm and a height of 5 cm; Maruemu Corporation, Model No. 1), and ultrasound was irradiated in a water bath type ultrasonic apparatus (AS12GTU, 35 kHz, 60 W), to thereby disperse the peptide at a concentration of 1.0% by weight. Thereafter, the microtube was left to stand in a CO2 incubator (37° C., CO2 concentration 5%) for 48 hours in a state standing vertically with the bottom surface thereof facing downward. Penicillin (Life Technologies Corporation, Model No. 15140148) was used as an antibacterial agent at 100 U/mL for the purpose of prevention of mold generation, and a CO2 incubator was used for performing gelling in a condition similar to an in vivo condition.
In order to test whether the peptide sample lost fluidity and gelled, the sample was sealed in a CO2 incubator (37° C., CO2 concentration 5%) and taken out of the incubator, the microtube was rapidly flipped vertically, and a photograph of the peptide sample was taken and recorded. In a case where a portion or all of the peptide sample remained on the bottom surface side of the microtube, the peptide sample was determined to have lost fluidity and gelled. On the other hand, in a case where all of the peptide sample dropped to the cap side of the microtube, the peptide sample was determined not to have gelled.
Additional five types of peptides: […] (SEQ ID NO: 41), […] (SEQ ID NO: 42), […] (SEQ ID NO: 43), […] (SEQ ID NO: 44), and […] (SEQ ID NO: 45) were synthesized according to the same methods as in (1) to (3) of Example 1, and were subjected to gelling and fluidity test.

[5] = Circular dichroism spectrum of peptide gels; assay type: physicochemical; conditions: 1.0% by weight peptide gel
Description: The “circular dichroism” refers to a phenomenon in which a difference in absorbance occurs between left-handed circularly polarized light and right-handed circularly polarized light when a protein absorbs a circularly polarized light.
Among the peptide gels having a concentration of 1.0% by weight prepared in Example 1, three types of peptides as examples: […] peptide (SEQ ID NO: 4), […] peptide (SEQ ID NO: 2), and […] peptide (SEQ ID NO: 5) were subjected to measurement of circular dichroism spectra at 20° C., 40° C., 60° C., and 80° C. and circular dichroism spectra when re-cooled from 80° C. to 20° C.
The circular dichroism spectrum was measured with a JASCO J-1100 CD Spectrometer by using an assembly cell (GL Sciences, AB20-UV-0.1, cell length 0.1 mm). The measurement range was from 190 to 400 nm, the data-obtaining interval was 0.2 nm, the scanning speed was 200 nm/min, and the specimen concentration was 1.0% by weight. When the circular dichroism spectrum was measured, the temperature was controlled with JASCO temperature regulation unit and a water-cooled Peltier cell holder PTC-514.

[6] = test system: mouse fetus-derived 3T3 cells (NIH3T3 cells); assay: Evaluation of cell adhesiveness on peptide-coated chamber slide; assay type: cell-based; conditions: 30 minutes on peptide-coated slide, compared with (RADA)4 peptide control
Experimental: A peptide sample having a concentration of 1.0% by weight was prepared by the same method as in Example 1. The peptide sample at 50 μL was dropped on a chamber slide (Merck Millipore, Millicell EZ 8-well glass) and dried under reduced pressure using a centrifugal concentrator (TAITEC CORPORATION, VC-96W), to thereby produce a chamber slide coated with the peptide. After 1.8×10^5 of mouse fetus-derived 3T3 cells (NIH3T3 cells) were suspended in 250 μL of a DMEM medium (containing 44 mM NaHCO3, Gibco, 11995-065) containing 10% serum and seeded onto the chamber slide coated with the peptide, incubation was performed in a CO2 incubator (37° C., CO2 concentration 5%) for 30 minutes. The chamber slide was washed with PBS, and cells not adhering thereto were removed. The adhering cells remaining after the washing were immobilized with 4% PFA, and then subjected to DAPI staining. The number of adhering cells was measured according to stereology as a strict quantitative determination technique which eliminates sampling biases. Specifically, nine frames of 100 μm×100 μm were created in a region of 300 μm×300 μm, and the number of cells in each of the frames was counted. The resulting number of cells was converted into the number of cells in a region of 1 mm×1 mm. In the present Example, a (RADA)4 peptide (SEQ ID NO: 19), which is known to form a cell-adhesive peptide gel, was used as a control.

**Q.** For “GFP-RADA16 fusion peptide (from UniProt P42212 1-238)”, which incorporation rate [1] is on record?
**A.** The incorporation rate was under 70%.

**Q.** What does the source list for “RADARADARADARADA [(RADA)4, reference compound]”?
**A.** G' (Pa) ([2]; pH 3-4, peptide concentration 1.0% by weight): 30^*3 Pa; G' (Pa) ([3]; 2.2% TFA aq.): 265 Pa

**Q.** Which results are given for RIDADMRARIR?
**A.** gelling (loss of fluidity after vertical flipping of the microtube) [4]: gelled; G' (Pa) ([3]; DMEM (pH 7.4), 20°C): 47,500 Pa

**Q.** With RIDARMDARIR as the substance, how does the “circular dichroism signal (β-sheet structure)” value [5] read?
**A.** The value was “negative cotton effect around 220 nm”.

**Q.** And the “cell adhesiveness (number of adhering cells)” value [6]?
**A.** The value was “comparable with or more than a (RADA)4 peptide”.

**Q.** What about the “gelling (loss of fluidity after vertical flipping of the microtube)” value [4] of the same substance?
**A.** The value was “gelled”.

**Q.** What about the “G' (Pa)” value ([3]; DMEM (pH 7.4), 20°C) of the same substance?
**A.** The value was 58,300 Pa.

**Q.** With RIDARMRADIR as the substance, how does the “circular dichroism signal (β-sheet structure)” value [5] read?
**A.** Its value is “negative cotton effect around 220 nm”.

**Q.** What about the “cell adhesiveness (number of adhering cells)” value [6] of the same substance?
**A.** The value was “comparable with or more than a (RADA)4 peptide”.

**Q.** And the “gelling (loss of fluidity after vertical flipping of the microtube)” value [4]?
**A.** The value was “gelled”.

**Q.** What about the “G' (Pa)” value ([3]; DMEM (pH 7.4), 20°C) of the same substance?
**A.** The value was 21,300 Pa.

**Q.** For RIDARMRADMR, which “gelling (loss of fluidity after vertical flipping of the microtube)” value [4] is on record?
**A.** Its value is “gelled”.

**Q.** For RIRADIRADMR, which “gelling (loss of fluidity after vertical flipping of the microtube)” value [4] is on record?
**A.** The value was “gelled”.

**Q.** For RIRADIRGDIR, which “gelling (loss of fluidity after vertical flipping of the microtube)” value [4] is on record?
**A.** The value was “gelled”.

**Q.** Which “gelling (loss of fluidity after vertical flipping of the microtube)” value [4] does the source give for RIRADMDARIR here?
**A.** The value was “gelled”.

**Q.** What does the source list for RIRADMRADIR?
**A.** circular dichroism signal (β-sheet structure) [5]: negative cotton effect around 220 nm; cell adhesiveness (number of adhering cells) [6]: comparable with or more than a (RADA)4 peptide; gelling (loss of fluidity after vertical flipping of the microtube) [4]: gelled; G' (Pa) ([3]; DMEM (pH 7.4), 20°C): 4,830 Pa

**Q.** For RIRADMRGDIR, which “gelling (loss of fluidity after vertical flipping of the microtube)” value [4] is on record?
**A.** The value was “gelled”.

**Q.** For RIRARMDADIR, which “gelling (loss of fluidity after vertical flipping of the microtube)” value [4] is on record?
**A.** The value was “gelled”.

**Q.** And the “G' (Pa)” value ([3]; DMEM (pH 7.4), 20°C)?
**A.** Its value is 6,500 Pa.

**Q.** Which “gelling (loss of fluidity after vertical flipping of the microtube)” value [4] does the source give for RIRGDIRADIR here?
**A.** The value was “gelled”.

**Q.** Which “gelling (loss of fluidity after vertical flipping of the microtube)” value [4] does the source give for RIRGDIRGDIR here?
**A.** The value was “gelled”.

**Q.** With RIRGDMRADIR as the substance, how does the “gelling (loss of fluidity after vertical flipping of the microtube)” value [4] read?
**A.** The value was “gelled”.

**Q.** For RIRGDMRGDIR, which “gelling (loss of fluidity after vertical flipping of the microtube)” value [4] is on record?
**A.** The value was “gelled”.

**Q.** What about the “G' (Pa)” value ([3]; DMEM (pH 7.4), 20°C) of the same substance?
**A.** Its value is 47,800 Pa.

**Q.** Which results are given for “RLDLRLALRLDLR [SPG178, known peptide gelling agent]”?
**A.** G' (Pa) ([2]; pH 7, peptide concentration 1.0% by weight): 70^*3 Pa; G' (Pa) ([2]; pH 7, peptide concentration 1.5% by weight): 300^*3 Pa

**Q.** Which “gelling (loss of fluidity after vertical flipping of the microtube)” value [4] does the source give for RMDADMRARIR here?
**A.** Its value is “gelled”.

**Q.** For RMDARIDARIR, which “gelling (loss of fluidity after vertical flipping of the microtube)” value [4] is on record?
**A.** The value was “gelled”.

**Q.** With RVDVDVRVRVR as the substance, how does the “gelling (loss of fluidity after vertical flipping of the microtube)” value [4] read?
**A.** The value was “did not gel”.

**Q.** Which “gelling (loss of fluidity after vertical flipping of the microtube)” value [4] does the source give for RVDVRVDVRVR here?
**A.** Its value is “did not gel”.

**Q.** Which “gelling (loss of fluidity after vertical flipping of the microtube)” value [4] does the source give for RVDVRVRVDVR here?
**A.** The value was “did not gel”.

**Q.** With RVRVDVDVRVR as the substance, how does the “gelling (loss of fluidity after vertical flipping of the microtube)” value [4] read?
**A.** Its value is “did not gel”.

**Q.** With RVRVDVRVDVR as the substance, how does the “gelling (loss of fluidity after vertical flipping of the microtube)” value [4] read?
**A.** The value was “did not gel”.

**Q.** For RVRVRVDVDVR, which “gelling (loss of fluidity after vertical flipping of the microtube)” value [4] is on record?
**A.** Its value is “did not gel”.
